Data as given in patent publication US20040006777.

Target: Raytide (synthetic peptide substrate)

B1: T7 tagged Lyp1 (protein)
chain: MDQREILQKFLDEAQSKKITKEEFANEFLKLKRQSTKYKADKTYPTTVAENAKNIKKNRYKDILPYDYSRVELSLITSDEDSSYINANFIKGVYGPKAYIATQGPLSTTLLDFWRMIWEYSVLIIVMACMEYEMGKKKCERYWAEPGEMQLEFGPFSVSCEAEKRKSDYIIRTLKVKFNSETRTIYQFHYKNWPDHDVPSSIDPILELIWDVRCYQEDDSVPICIHCSAGCGRTGVICAIVDYTWMLLKDGIIPENFSVFSLIREMRTQRPSLVQTQEQYELVYNAVLELFKRQMDVIRDKHSGTESQAKHCIPEKNHTLQADSYSPNLPKSTTKAAKMMNQQRTKMEIKESSSFDFRTSEISAKEELVLHPAKSSTSFDFLELNYSFDKNADTTMKWQTKAFPIVGEPLQKHQSLDLGSLLFEGCSNSKPVNAAGRYFNSKVPITRTKSTPFELIQQRETKEVDSKENFSYLESQPHDSCFVEMQAQKVMHVSSAELNYSLPYDSKHQIRNASNVKHHDSSALGVYSYIPLVENPYFSSWPPSGTSSKMSLDLPEKQDGTVFPSSLLPTSSTSLFSYYNSHSSLSLNSPTNISSLLNQESAVLATAPRIDDEIPPPLPVRTPESFIVVEEAGEFSPNVPKSLSSAVKVKIGTSLEWGGTSEPKKFDDSVILRPSKSVKLRSPKSELHQDRSSPPPPLPERTLESFFLADEDCMQAQSIETYSTSYPDTMENSTSSKQTLKTPGKSFTRSKSLKILRNMKKSICNSCPPNKPAESVQSNNSSSFLNFGFANRFSKPKGPRNPPPTWNI
33P release from labelled Raytide, in vitro phosphatase assay with immunoprecipitates: a seven fold increase in ^33P release from the substrate incubated with Lyp immunoprecipitates compared to control immunoprecipitates
